Experimental data: PMC10197580

Biological target: T1, CST with the His6-MBP tag cleaved (human), Q2NKJ3
T1 chain 1: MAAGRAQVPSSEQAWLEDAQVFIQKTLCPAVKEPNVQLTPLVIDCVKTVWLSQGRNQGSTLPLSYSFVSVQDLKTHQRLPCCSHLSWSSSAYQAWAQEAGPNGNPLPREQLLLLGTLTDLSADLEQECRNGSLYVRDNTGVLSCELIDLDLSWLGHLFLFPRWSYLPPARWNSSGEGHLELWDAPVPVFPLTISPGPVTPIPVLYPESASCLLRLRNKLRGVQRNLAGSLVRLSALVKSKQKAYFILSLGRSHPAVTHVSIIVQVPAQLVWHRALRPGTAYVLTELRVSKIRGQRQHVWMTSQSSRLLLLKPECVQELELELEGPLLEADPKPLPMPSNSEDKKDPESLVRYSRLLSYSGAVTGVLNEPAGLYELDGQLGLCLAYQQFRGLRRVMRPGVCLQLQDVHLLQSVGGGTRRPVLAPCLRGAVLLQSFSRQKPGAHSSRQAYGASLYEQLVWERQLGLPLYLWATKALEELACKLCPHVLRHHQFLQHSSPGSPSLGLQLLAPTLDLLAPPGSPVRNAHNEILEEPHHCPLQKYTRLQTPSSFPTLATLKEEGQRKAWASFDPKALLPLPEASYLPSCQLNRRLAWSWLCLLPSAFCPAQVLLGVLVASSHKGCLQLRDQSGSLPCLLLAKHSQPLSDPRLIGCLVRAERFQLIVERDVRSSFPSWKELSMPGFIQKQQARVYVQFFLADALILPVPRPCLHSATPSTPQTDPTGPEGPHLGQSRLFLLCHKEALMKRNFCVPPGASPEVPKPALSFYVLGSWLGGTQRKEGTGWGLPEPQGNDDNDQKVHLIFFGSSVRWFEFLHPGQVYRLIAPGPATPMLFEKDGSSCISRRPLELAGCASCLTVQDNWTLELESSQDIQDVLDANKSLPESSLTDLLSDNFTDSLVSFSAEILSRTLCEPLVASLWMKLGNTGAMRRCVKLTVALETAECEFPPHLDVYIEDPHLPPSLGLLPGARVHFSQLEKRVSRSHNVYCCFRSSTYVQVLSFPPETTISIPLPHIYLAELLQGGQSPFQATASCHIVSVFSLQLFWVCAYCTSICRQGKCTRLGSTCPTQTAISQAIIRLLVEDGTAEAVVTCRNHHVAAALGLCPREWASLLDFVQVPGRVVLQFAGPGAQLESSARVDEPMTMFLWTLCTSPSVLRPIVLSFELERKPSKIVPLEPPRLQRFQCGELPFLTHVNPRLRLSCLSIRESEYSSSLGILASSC
T1 chain 2: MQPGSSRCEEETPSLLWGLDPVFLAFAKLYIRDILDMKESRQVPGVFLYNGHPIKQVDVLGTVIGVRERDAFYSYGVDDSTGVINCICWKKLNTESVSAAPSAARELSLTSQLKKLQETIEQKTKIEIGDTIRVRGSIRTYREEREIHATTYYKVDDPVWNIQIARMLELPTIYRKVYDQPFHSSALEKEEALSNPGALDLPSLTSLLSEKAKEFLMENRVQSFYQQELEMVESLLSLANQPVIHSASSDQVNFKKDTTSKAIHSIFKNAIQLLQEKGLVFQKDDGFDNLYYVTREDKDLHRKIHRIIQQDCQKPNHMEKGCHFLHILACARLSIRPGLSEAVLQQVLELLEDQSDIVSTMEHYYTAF
T1 chain 3: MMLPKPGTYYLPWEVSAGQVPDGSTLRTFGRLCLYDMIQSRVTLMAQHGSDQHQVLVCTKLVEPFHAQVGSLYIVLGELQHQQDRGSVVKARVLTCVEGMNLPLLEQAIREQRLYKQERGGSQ
Assay: negative-stain EM
Settings: remark: other sources report otherwise

B1: CST with the His6-MBP tag cleaved, Q2NKJ3;Q9H668;Q86WV5 (complex)
chain 1: T1 chain 1
chain 2: T1 chain 2
chain 3: T1 chain 3
  stoichiometry N: 2
